The results in this text go back to publication PMC10920689.

For assay [1], the target named is truncated soluble human FcRn of the FcRn binding ELISAs (hFcRn-GST or biotinylated human FcRn; the form is not told for the panel) (UniProt P55899).
The target is the same in assay [2]. This is another data set of the same source.
The target in assay [3] is truncated soluble biotinylated mouse FcRn lacking the transmembrane domain (mouse | not stated) (UniProt Q61559).
In assay [4] the target is human FcRn coupled to the FcRn retention column (UniProt P55899). Put plainly: analytical FcRn affinity chromatography; 100 μg NIP IgG1 variant injected over a human FcRn retention column at pH 6.0, eluted by a pH gradient 6.0 to 8.8 over 110 min (20 mM MES, 140 mM NaCl pH 6.0; 20 mM Tris/HCl, 140 NaCl pH 8.8).
The target of a further assay is anti-NIP IgG1 WT (human). Briefly: SPR; IgG variants amine-coupled to CM5 chips (300 RU), serial dilutions of monomeric hFcRn-His injected; phosphate buffer pH 6.0, 25 °C, 50 µl/min; 1:1 Langmuir model.
Another assay addresses anti-NIP IgG1 KF (human). The assay is described as above.
The target of assay [5] is anti-NIP IgG2 REW (human). The description is as above.
Assay [6] has as its target anti-NIP IgG1 YTE (human). The description is as above.
Another assay has as its target anti-NIP IgG1 LS (human). The assay is described as above.
The target of another assay is anti-NIP IgG4 WT (human). Described as above.
The target of assay [7] is anti-NIP IgG1 YTE/KF (human). Described as above.
The target in assay [8] is anti-NIP IgG1 Q311R/M428E/N434W (REW) (human). Described as above.
In assay [9] the target is anti-NIP IgG4 REW (human). The assay is described as above.
For assay [10], the target named is anti-NIP IgG1 DHS (human). The description is as above.
The target in another assay is anti-NIP IgG2 WT (human). The assay is described as above.
Another assay deals with anti-NIP IgG3 WT (human). The description is as above.
The target of assay [11] is anti-NIP IgG3 R435H/REW (human). Described as above.
The target in assay [12] is recombinant etanercept WT. The description is as above.
Assay [13] deals with anti-NIP human IgG1 Q311R/M428E/N434W (REW) (human). Briefly: SPR; Biacore 3000; NIP IgG1 variants amine-coupled (300 RU) to CM5 chips; serial dilutions of monomeric hFcRn-His injected at pH 6.0 (phosphate), 50 μl/min, 25 °C; Langmuir 1:1 model. Background: SPR reads the build-up and loss of mass on a sensor chip optically.

UniProt Q61559, sequence (Q61559 22-297, chain 1 of 2): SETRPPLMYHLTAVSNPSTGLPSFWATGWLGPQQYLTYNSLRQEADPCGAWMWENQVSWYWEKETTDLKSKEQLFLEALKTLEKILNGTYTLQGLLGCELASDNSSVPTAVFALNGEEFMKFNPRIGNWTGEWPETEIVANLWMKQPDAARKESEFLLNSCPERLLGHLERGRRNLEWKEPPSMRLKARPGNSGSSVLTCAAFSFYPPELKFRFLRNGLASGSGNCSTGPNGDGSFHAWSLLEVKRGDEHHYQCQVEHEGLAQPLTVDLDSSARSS
UniProt Q61559, sequence (P01887 21-119, chain 2 of 2, further chain): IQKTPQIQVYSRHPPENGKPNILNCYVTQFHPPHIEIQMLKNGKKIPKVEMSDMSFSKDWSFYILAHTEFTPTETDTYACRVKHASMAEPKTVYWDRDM

In assay [1], “anti-NIP human IgG2 wild type (antibody)” registered a plasma half-life in Tg32 mice preloaded with IVIg of 202 h.
In assay [2], “anti-NIP human IgG1 Q311R/M428E/N434W (REW) (antibody)” yielded a plasma half-life after i.v. injection (5 mg/kg) in human FcRn transgenic mice (Tg32) preloaded with IVIg of 341 h. This substance showed a plasma half-life in conventional mice, against WT in assay [3] of 2 fold. In [4], this substance yielded a pH of elution from the FcRn column of 7.58 pH.
In the case of “anti-NIP human IgG2 Q311R/M428E/N434W (REW) (antibody)”, the plasma half-life in Tg32 mice preloaded with IVIg in assay [1] was determined as 276 h.
Regarding “truncated soluble His6x tagged human FcRn lacking the transmembrane domain (hFcRn-His) (from UniProt P55899 24-297; P61769 21-119) (receptor)”, the Kd was 171 nM with anti-NIP IgG1 WT (human); 15.9 nM with anti-NIP IgG1 KF (human); 13.3 nM in [5]; 28.2 nM in [6]; 13.7 nM with anti-NIP IgG1 LS (human); 1280 nM in the assay with anti-NIP IgG4 WT (human). Further, the Kd in assay [7] was 3.44 nM; in assay [8] it was 8.39 nM; in [9], 13.1 nM; in assay [10], 40.3 nM; in the assay with anti-NIP IgG2 WT (human) it was 388 nM; with anti-NIP IgG3 WT (human) it was 525 nM. Further, the Kd in assay [11] was 10.3 nM; in assay [12] it was 346 nM. In addition, the koff was found to be 0.0825 s⁻¹ in the assay with anti-NIP IgG1 WT (human); 0.0122 s⁻¹ in the assay with anti-NIP IgG1 KF (human); 0.0075 s⁻¹ in assay [5]; 0.0168 s⁻¹ in [6]; 0.0058 s⁻¹ with anti-NIP IgG1 LS (human); 0.123 s⁻¹ with anti-NIP IgG4 WT (human). The koff was 0.003 s⁻¹ in [7]; 0.0055 s⁻¹ in [8]; 0.008 s⁻¹ in assay [9]; 0.0304 s⁻¹ in assay [10]; 0.0536 s⁻¹ in the assay with anti-NIP IgG2 WT (human); 0.177 s⁻¹ with anti-NIP IgG3 WT (human). Besides, the koff in assay [11] worked out at 0.007 s⁻¹; in [12], 0.12 s⁻¹. Also, the kon in the assay with anti-NIP IgG1 WT (human) is 483000 M⁻¹ s⁻¹; in the assay with anti-NIP IgG1 KF (human), 770000 M⁻¹ s⁻¹; in [5] it was 570000 M⁻¹ s⁻¹; in assay [6], 594000 M⁻¹ s⁻¹; with anti-NIP IgG1 LS (human) it was 422000 M⁻¹ s⁻¹; with anti-NIP IgG4 WT (human), 95800 M⁻¹ s⁻¹. In addition, the kon in [7] is 871000 M⁻¹ s⁻¹; in assay [8], 653000 M⁻¹ s⁻¹; in assay [9], 606000 M⁻¹ s⁻¹; in [10], 756000 M⁻¹ s⁻¹; with anti-NIP IgG2 WT (human), 138000 M⁻¹ s⁻¹; with anti-NIP IgG3 WT (human), 337000 M⁻¹ s⁻¹. Moreover, the kon came to 674000 M⁻¹ s⁻¹ in assay [11] and 348000 M⁻¹ s⁻¹ in assay [12].
In turn, “truncated soluble His6x tagged human FcRn lacking the transmembrane domain (hFcRn-His), monomeric fraction (from UniProt P55899 24-297; P61769 21-119) (receptor)” showed a fold lower KD than WT in assay [13] of 20 fold.
In turn, “anti-NIP human IgG1 wild type (antibody)” yielded a plasma half-life after i.v. injection (5 mg/kg) in human FcRn transgenic mice (Tg32) preloaded with IVIg in assay [2] of 187 h. For the same substance, the pH of elution from the FcRn column in assay [4] turned out to be 6.95 pH.

What is called Kd is the constant that tells how readily two partners part at equilibrium. By koff is commonly meant the first-order rate constant of dissociation. For orientation: kon means the second-order rate constant of association.
